Target: MADD with deletion of exon 30 (dex30), MAC-tagged (human) (UniProt Q8WXG6)
Test: affinity purification with mass spectrometry + proximity labelling; AP-MS and BioID with MAC-tagged MADD (wild-type or dex30) in Flp-In T-REx 293 cells; the text does not tell which of the two approaches gave this result (Figure 7)

fold change of relative abundance against wild-type MADD: 24 fold
Substance: ubiquitin-specific peptidase 9 X-linked (from UniProt Q93008 1-2554) (natural protein)
